# PMC12251106, “An Organic Solvent-Tolerant α-L-Rhamnosidase from Dictyoglomus thermophilum and Its Application in Production of Icariside I from Icariin” (Molecules, 2025)
# Substrate: C[C@@H]1O[C@@H](Oc2ccc([N+](=O)[O-])cc2)[C@H](O)[C@H](O)[C@H]1O
# Assay: purified protein
# Type: biochemical, Dictyoglomus thermophilum
# Conditions: 100 mM NaAc-HAc pH 6.0, 55 °C, 0.1-5 mM pNPR, 0.2 mg/mL enzyme, apparent parameters
protein,measurement,value
"DthRha (Dictyoglomus thermophilum H-6-12) (protein, 921 residues (2763 bp gene); theoretical 106 kDa, about 105 kDa on SDS-PAGE) MKSSNIYSPFDLKCEFTTNPLGVDKKNPIFSWKLRHLEKNEKQTAYQVIVSSSLETINDNIGDVWDTGKVLSSEQVIKYEGKELEPCKVYFWKVRWWDSKDQESPFSVVNTFETGLMNEENWKAKWITKKEHKYEVYSPDGAPFGLNYTIAYAPMFRKSFSISKKIKRARVYIAGLGLYELYINGERIGDRVLDPGQTDYKKRVLYTVYDVSKNIRDGKNAIGVILGNGRYVKEYGYDFPKLIIQVLVEYEDDSIEWIVSDESWKTTYGPITLNSLYHGEIYDGRKEIKGWNLPDFDDSTWENAILAEPPGGKLYSEIYPPIRITKTIKPIKMWSPEPGTYVYDFGQNYTGWIKIKVRTNESGKEIRIRHAELTYEDGTLNYSTNRTALATDVYITKGEGYEEYEPRFTYHGFRYVEILGYPGVPTLEDIEGKVVHTAVESNGEFICSNELINKIHHNIIWGQLSNLMSIPTDCPQRDERMGWMGDAQLSAEEAIFNFDMIGFYRKYLNDIRDAQKENGSLSDVIPPYWSIYPGDPAWSTAYITIAWYLYQYYGDKYVLEEHYEGFKKYVEFLKKLAPDYIVSFYKYGDWCQPGTVRPKDNSGELTSTFYFYHDVITLSKIAKLLGKEADYKYYSELADKIKSAFNKKFLKEKAYASIPTELSEENVKALLEKYPEDIKDFLRQQFTILSSLGMFTSQTLNTLPLYLNLVPEDKVQDVLKTLLEDIIIRHDYHLDTGIVATRYIFDVLTSYGYDEVAYKIVNQKTYPSFGYMIEEGATTLWERWEKLTSTGMNSHNHIMFGSVDAWFYRVIAGVRVGEPGWNKIIFEPHPVGDLKYAKARLNTIKGEVEINWQKTENIFSMRISVPVNSEGEVHVPKLFERFVVKEGDNIIYEKKGDLEENEKYIVIRVGSGSYNFYMEKI",Km,440 µM
same,kcat,7.99 s⁻¹
same,kcat/Km,18200 M⁻¹ s⁻¹
